Laboratory results as given in the DeepSol protein solubility set.

experiment: soluble on expression in E. coli; label from the status in PepcDB or PDB records

| Sequence | soluble on expression in E. coli |
| --- | --- |
| MGIKGLSQVIADNAPSAIKVNEMKAFFGRTVAIDASMCLYQFLIAVRQDGSQLQSEDGETTSHLMGMLNRTVRMFENGVKPVYVFDGKPPDMKGGELEKRSERRAEAEKALTEAKEKGDVKEAEKFERRLVKVTKQQNDEAKRLLGLMGIPVVEAPCEAEAQCAHLVKAGKVFGTVTEDMDALTFGSTVLLRHFLAPVAKKIPIKEFNLSLALEEMKLSVEEFIDLCILLGCDYCGTIRGVGPKKAVELIRQHKNIETILENIDQNKYPPPEDWPYKRARELFLNPEVTKPEEVELTWKEADVEGVIQFLCGEKNFNEERIRNALAKLKTSRKSGTQGRIDSFFGNSTKVTCVTAATKRKAEEAEKAKKGAKKGGPPKKRAK | not soluble |
| MIILQANKIERSFAGEVLFDNINLQVDERDRIALVGKNGAGKSTLLKILVGEEEPTSGEINKKKDISLSYLAQDSRFESENTIYDEMLHVFNDLRRTERQLRQMELEMGEKSGEDLDKLMSDYDRLSENFRQAGGFTYEADIRAILNGFKFDESMWQMKIAELSGGQNTRLALAKMLLEKPNLLVLDEPTNHLDIETIAWLENYLVNYSGALIIVSHDRYFLDKVATITLDLTKHSLDRYVGNYSRFVELKEQKLVTEAKNYEKQQKEIAALEDFVNRNLVRASTTKRAQSRRKQLEKMERLDKPEAGKKSANMTFQSEKTSGNVVLTVENAAVGYDGEVLSQPINLDLRKMNAVAIVGPNGIGKSTFIKSIVDQIPFIKGEKRFGANVEVGYYDQTQSKLTPSNTVLDELWNDFKLTPEVEIRNRLGAFLFSGDDVKKSVGMLSGGEKARLLLAKLSMENNNFLILDEPTNHLDIDSKEVLENALIDFDGTLLFVSHDRYFINRVATHVLELSENGSTLYLGDYDYYVEKKATAEMSQTEEASTSNQAKEASPVNDYQAQKESQKEVRKLMRQIESLEAEIEELESQSQAISEQMLETNDADKLMELQAELDKISHRQEEAMLEWEELSEQV | not soluble |
| MGSDKIHHHHHHMYSCYNNFVKYALTMQFDIEVDVMYEVKLDAFNGPLDLLLHLIQKYEIDIYDIPMKALTEQYMQYVHAMNQLEINVASEYLVMASELLMIKSKLLLPQTSIEEDIEEDPREDLVGRLIEYQNYKEYTEILNTMKEERDLYFTKHPTDLTHLETNESWDPNQTIDLTELIVAYQRVKNRVELNTPKSVEIKKETFTIQQATAQVTERLKQHESFNFFSLFTFHEPVEQVVTHFLAILEMSKSGIVNIKQTKQFDDIDIIRGVNYSIG | not soluble |
| MGNIMSASFAPECTDLKTKYDSCFNEWYSEKFLKGKSVENECSKQWYAYTTCVNAALVKQGIKPALDEAREEAPFENGGKLKEVDK | soluble |
| MVNKDVTKVCIGKIEELPEQLGKTVYIEDKELAVFKLSDGSIRAIENRCPHKGGVLAEGIVSGQYVFCPMHDWKISLEDGIVQEPDHGCVKTYETLIEGEHVYLVY | not soluble |
| MSTSLVDRLWYGQGRPLALLTPLAWLYRAVSESRRRKAWHARNESLPVPVVVVGNITAGGTGKSPLTASLVQCMNQHGWKPVILSRGYGGKSSQYPLLVADGTPAGVCGDEPLMLARATGCPVVVDPDRCRGARWALENGLGDVLICDDGLQHYRLPRDIELAVFDARRGTGNGAIIPVGPLREPVERLNSVDFVVLNGAEFPEAGETIESFAGVDHPEIHAMELVPSALVNLNSGETLSPEQLKGKPVRAVAGIGNPGRFFETLRNLGAHVNEVPFPDHHHFRPEDLASGALEWLVMTAKDAVKCHGFAPDNAWVLTVQARLSEPFEQHFLERLRASSGQLQTDISEESNHGLEHHHHHH | not soluble |
| NKMPVIEVQGIVPTEIIVSPRYYRMGFVGGDLSVPVGQFVFRGEAAFNIDKHFTYKSHAEQEGFQTINWLAGADWYAPGEWMISGQFSMESIFRYRDFISQRQHSTLITLNVSKKFFGSTLQLSDFTYYDLTGKGWFSRFAADYALNDQIHLMAGYDWFSSKGSGIFDRYKDNSELWFKARYSF | not soluble |
| MGSDKIHHHHHHMTPLPSFRLSWPSALQRLCHAPAGKHMPAGAYQVHFPRLELVLSNRYHYSHEGCENASLSAQEALFIPAEHWTLPNWCANGEVLHILFDYARIGFSLVRSGPQGVISTHKESMVLAQRGSLNGMLDVLAGLCRDGADPEVLRLQGQALLALLQSLYDEARDSQWQQGGNLFRAICLYISEHLYAPLTREDVALRFSISATHLSRLFRQHLGLGFCEFLSHARLDLAKALLRQGQLPLSRVAARCGYADVNYFHRVFKQRFAMTPCAYRREFA | not soluble |
| MDVRELAIQQLKTVLDPELGINVVDLGLIYDLKIEDGHINVLMTLTTPGCPLHDSIAGGVKRALEQIDGVRDVRVQVTWNPPWTPERMSEEALRQLGHFS | not soluble |
| MSLDKPVLLLGEICVDFTLSTPMSSAKMRLGGVVHAARGLWALNVPYSVAAICPDYLVSEAEAYLYAHGCTNFIQVGTVLGAPNVFLIGDAREVGHQGYENILREAKKVLTFDLDEKLRGFKNIVVYPGTFDFEGIVKNLDSDAKITVDIAYDVNDADELSRVYGASHALAISTSSELFSSLALENLGPLLKACKTRSAKHLLLKENRGGSRLFDLESGESWEIPATLARTVNSVGVGDVYTAVFAALIDHGALTAALRGMQAATRYAQTTFPDDFKRDVQRDEGHHHHHH | not soluble |
| MGSDKIHHHHHHMITFDEIIPGVTDILKEYSKELDQMAPILVNRDLNGRVRLIIKDDIRGNSHAEGVLDKISKALHQRLGAHGFPPERIVLFETDMQTVLAETPCFPLDGVEGVSVADRLVTESNWSKGIAPTETVPRIVFFSIKGGVGRSTSLAAAAWALAESGKRVLVLDMDLESPGLSSSLLPQDRRPKFGITDWLVEDLVDNGDRVISDMIATSPLSRNGDIYVVPAHGADPGEYIAKLGRVWMPKVNAEGRRILWVQRLQGLLNALEDRLKPDVILLDSRAGIDEVASACVTDLGASSVLLFALDGDQTWSGYRILFRHWRQSGVVRDIRERLQVVGAMIPDVDAAGYYADLLESSWNAFSEELYDEIPAGLSANGEDYWNFDQADEAAPHYPWSIRWNRGFSAMRSLHNRFDTVDAEQVNYVFGDFLTGLAASVQNEEDER | not soluble |
| MNTAAGRKEDIRIPPRVAPDLNAPRVLVLNASYEPLQVTSIKRAITLLQYGVAEVLEQSRDVVRSPSTVMSVPSVIRLRRYVRRPRVGAVPFNRRNVLRRDHFTCQYCGSQDDLTMDHVHPRSRGGKHGWDNVVTACRTCNQRKGNLTPEEAGMPLHVPPHAPTFGVYAHGQFAHWQPEWSGYIRGLEHHHHHH | not soluble |
| MGSDKIHHHHHHMGKTIAIMQPYFLPYIGYWQLMKASDIFVVYDNIKYTKKGWVNRNRYLSNGKIKLFSIPLMKASNSLQIKDRYLAETYKLESAKTLRKIKDAYAVSKNFHPCFNLIERCFNANENNLFEFIYNSVAIFKDVLGLRAQLVVSSSIACDHSLNSAERVKAICTELGAESYINPVGGEHLYERDDFQKLGINLRFLKPRIEEYPQLSCQFQPYMSILDICMSCTFDEVKNNII | not soluble |
| MYNETPIKRRPSTRIYVGNVPIGDGAPIAVQSMTNTKTTDVEATVAQIRALEKVGADIVRVSVPTMDAAEAFKLIKQSVSVPLVADIHFDYRIALKVAEYGVDCLRINPGNIGNEERIRSVVECARDKNIPIRIGVNGGSLEKDLMDKYKEPTPEALLESAMRHVDILDRLNFDQFKVSVKASDVFLAVESYRLLAKQIRQPLHLGITEAGGARAGAVKSAVGLGMLLAEGIGDTLRISLAADPVEEIKVGFDILKSLRIRSRGINFIACPSCSRQEFDVISTVNELERRLEDVTTAMDVSIIGCVVNGPGEALVSHIGLTGGHRKSGYYDEGERQKERFDNDNLVDSLEAKIRAKASQMANRIQVKDTTEAAALEHHHHHH | not soluble |
| MKQVKITTTSDLINGGCNACPNVKCTNYLVHVEDETIALETLTVADLVTLLALKEGFRQKLVMEMFEEYTVFERETHQVVFKEEETRILFQSKKQTIQSTLLCKEPQQVFQETQQILHQLFELEPFEFELVEETDE | not soluble |
| DDSCQIGTSFTGLDMTKYVGTWYELFRTPNSDEEDFTNCEYDKYTLDENGVIQVTSVAYTNSIRGFITSTGTVPSWTEDTFDIAYGDDETWSSTYFMVGTDYQTYSIVAGCLDNDYSRHLYWIASHETSFDDATKAKVNEVLAPYNLSLDDMEPVDQSYCVQY | soluble |
